In the supplement of paper PMC12042874:
± gives the uncertainty stated by the source.

Experiment: amyloid nucleation score (Sup35N fusion, yeast selection) (log enrichment); library NNK1; higher = more nucleation; inactive = no reads after selection
How it was run: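 Random libraries were run with three technical output replicates. In each, psi-negative yeast expressing Sup35N fused to peptides of 20 random codons were induced 24 hours with 100 μM copper sulfate and grown 7 days at 30°C on medium lacking adenine and uracil, and input and output plasmid inserts were Illumina-sequenced. The nucleation score is the DiMSum log enrichment of output over input reads, centred on the mode score of non-aggregating sequences, and sequences under 100 input reads were excluded.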

Row | Substance | amyloid nucleation score
1 | PMVIYNFEFNFGVSSDRIYA | 4.35 ± 0.15
2 | KYKESMYLRLCFRYVWTNYS | 0.441 ± 0.61
3 | SGWCGSTFSCERNPTVYSSC | 1.96 ± 0.26
4 | GNWTGGYCVCGRQSSLIVVE | -0.016 ± 1.7
5 | KLWFVGSLYSGNVQVYVVVP | 4.49 ± 0.061
6 | NLMFSNGSNRSGF | 0.142 ± 0.38
7 | IISDDNSGMWWVMFLV | 0.065 ± 0.61
8 | YLIWLLGFANILYHYTL | inactive
9 | MRSKREMSFMTHEILVCNDA | 0.509 ± 0.31
10 | HANCG | -0.155 ± 0.59
11 | QTVGGRFSSFY | inactive
12 | YKLFGFFGRHPVNWYV | 0.344 ± 0.51
13 | SRSSCQVMVSRDAADVLHRI | 0.423 ± 0.58
14 | TTFGRPSTPH | -0.393 ± 0.38
15 | KCTENLFRHCIRLEGSTWKF | -1.34 ± 2.7
16 | IHNSVDKTYLCSVLNPRGYS | inactive
17 | NMSCCSTPYNPWTSIVPNVM | 0.103 ± 0.39
18 | VGELFCGWSRRERYPVWSLV | 0.255 ± 1.4
19 | HWLFWCQR | inactive
20 | AVGGDSMYSLQSGYKLILAS | 0.288 ± 0.35
21 | GCLAPLLIDLCCFQMRNSSN | 0.05 ± 0.49
22 | SLSMSRIQMHNRYKPGTQFD | 1.07 ± 0.46
23 | SSDEFVDGSLIWYHLFSPCR | -0.744 ± 0.41
24 | SPSSVYVINLNSNLRGNGFA | 7.08 ± 0.078
25 | DLFRSSLSPVSLLHSDMDMG | 0.12 ± 0.41

Row | Substance | amyloid nucleation score
26 | RILYSSSSAFIGIYSLFVII | 0.292 ± 0.23
27 | YLVMRMMVLRMAKPKIVGRD | 5.524 ± 0.051
28 | RGYVCTVVLSNILLGITTEG | 3.79 ± 0.097
29 | RIRNSEAGMLYTLYVTRLVD | -0.007 ± 0.31
30 | TLKFGSYQAVRLSHSGKPDD | 2.55 ± 0.1
31 | RSNYVDVSGLSYGGLIAL | inactive
32 | QMCLFKVNLVVTISI | inactive
33 | PWACSTSRSMLPSSSLPALM | 0.814 ± 0.66
34 | RVRGSASMLLSLMCSFTMYE | 3.3 ± 0.14
35 | TMYVALFLFLA | 2.54 ± 0.29
36 | HNCCDEVCGSNSGLFFRFMN | 0.979 ± 0.65
37 | RYVSVTGYDAQCRYCDKGTG | -0.326 ± 0.44
38 | SGCCVASFYHRDSILSCEKA | 0.446 ± 0.58
39 | PRWSLCIPSVLSGVITTIMT | 0.286 ± 0.27
40 | LMESVAVFPNSRLPILTEC | -0.011 ± 0.56
41 | IGPLYRFCMLNMRFGAGSLN | 0.428 ± 0.84
42 | KITSEPTKFYMGVCPSRSEL | -0.112 ± 0.44
43 | IFAQKGYTSRFSILM | -0.565 ± 0.58
44 | CWWRV | -0.761 ± 0.83
45 | GLLLSCSWNIDVSA | 0.235 ± 0.56
46 | MRCGAL | 0.2 ± 1.2
47 | KTVVSELSVVNEVVA | -0.359 ± 0.31
48 | VEVKSCIWDFGCNQRGYGDG | 5.32 ± 0.079
49 | YNVSHLIRV | -0.959 ± 0.26
50 | EGQCSNIVSKLAPSKIPYLR | -0.853 ± 0.66

Row | Substance | amyloid nucleation score
51 | VVEARWNKAMHTNFLNVRES | 0.601 ± 0.65
52 | FQYGLGMRVRWKDAMLIRTR | inactive
53 | VWRKTLRWPLGPWAGRS | -1.11 ± 0.46
54 | TTYYRFNVDKTFSAVISAEF | -1.02 ± 2.4
55 | INFCFKCWNKVWLDNFFLSS | -0.67 ± 0.22
56 | ENMGELCA | inactive
57 | PLVSTHALSAGILYCFKFYR | 5.57 ± 0.097
58 | CTIWPSQDGRGCTLCGSRL | 0.348 ± 0.75
59 | RWSLGGICVYVGLNEFVLMI | 2.56 ± 0.22
60 | LVMFMNMSLRYNRGLSLVKR | -0.252 ± 0.26
61 | LHYCTCSIRSIF | 0.325 ± 0.6
62 | KHPEM | 1.43 ± 0.38
63 | LFRYNDWCAYHLPSPWWGNR | 0.112 ± 0.83
64 | RFLSMWSHCQLMF | inactive
65 | SKLMTRVTVWLGSYGRGSWH | 0.629 ± 0.83
66 | MQMSLTDSGGVYVDGLVGYL | -0.239 ± 0.31
67 | MYYCD | -0.35 ± 0.54
68 | YVEVQVIKWVMKSEVHRGAW | 1.27 ± 0.48
69 | LDIDTKW | -0.204 ± 0.38
70 | RFVQRKDSFFARI | 1.21 ± 0.66
71 | TDPRNNACVFYVCYYTSCWD | 0.923 ± 0.66
72 | MSALTGQKPLVMVGGLCAVG | 0.449 ± 0.55
73 | WGYDTHLLMNLRNVCIGFLR | -0.431 ± 0.7
74 | ADWTSSLNLGEYYMFKFSPE | 1.02 ± 0.38
75 | HMITSLRWSSLRSWTQVWLR | inactive

Row | Substance | amyloid nucleation score
76 | SRFNPSQRMHSNSGKGGVSF | inactive
77 | GPLINTDELWIWSAVCCCRL | -0.781 ± 1.9
78 | DFECILLGCFGLDLPVTGIR | 2.27 ± 0.16
79 | SASGAWSGWPHRKVGYGSSL | 0.664 ± 0.36
80 | IQGNFRDLGRDKHDTEVWHP | 0.858 ± 0.45
81 | ILSFSVRLPVHDSSLCFGSG | 0.316 ± 0.67
82 | KSGLRTLFSGVGHCWDALVY | 0.198 ± 0.45
83 | WASEMRHGWRAHNIYVGEDC | 0.937 ± 0.59
84 | CNLSTCSFHFHFLT | 4.53 ± 0.11
85 | GYVDPFRLYQGLMIFDYVGS | -0.332 ± 0.44
86 | VRCNC | 0.261 ± 0.5
87 | TRGVGYFIREIFGS | 0.241 ± 1.4
88 | SEYTLLTFKSFGNRAPHFVG | 1.75 ± 0.19
89 | YLCPFIYMAHSGSSDVCLIV | 3.38 ± 0.11
90 | VCKMSTLVDDWRGSARPHRL | 0.782 ± 0.37
91 | MWYLMRTLTLIRFFVSPVGS | 0.154 ± 0.31
92 | IPTFSKIGKLFYVCGAEFSD | -0.355 ± 0.88
93 | SCAYQGKLSIAAMLVSGFGC | 1.16 ± 0.97
94 | MGHAGTLCFANNCLNM | 7.483 ± 0.059
95 | VDKYIIFIEIYIADSCDTLG | 0.374 ± 0.54
96 | TLVTEESWMSLLSVNIAQ | -0.378 ± 0.59
97 | GNSYLILNGRSYSRIFARSS | inactive
98 | FESMVTIILIDPFDVLIGDG | inactive
99 | FMEVWRYWRFIVSRERFNHI | -0.207 ± 0.78
100 | VLGSVIGFLWNP | 2.23 ± 0.088

Row | Substance | amyloid nucleation score
101 | SQIASVINAQSSMCRFV | -0.023 ± 0.38
102 | SECIVFYIPTYKHD | 7.909 ± 0.059
103 | ASAWGLGYEFPWSRSYSAKT | -0.209 ± 0.9
104 | SVNRCFSAFLSQAIT | 0.042 ± 0.53
105 | SVFISNERL | inactive
106 | PDMCQERNYCELYPCKARAT | -0.612 ± 0.41
107 | CLSYI | -0.172 ± 0.27
108 | YALKLSMDVGLYLLFEGDRD | -1.36 ± 1.9
109 | IDLGFLNKCLCRNSCCVGEA | 1.81 ± 0.17
110 | LCFLWIGVP | -0.241 ± 1
111 | QSVGMWSY | -0.256 ± 0.88
112 | YLTQLV | 0.528 ± 0.38
113 | TGGFIFHGCAFYRMFSWLVD | 0.849 ± 1.1
114 | QWLYYVKEPIAYSLL | 0.46 ± 0.24
115 | NIVDVKPQKRETIRWLWIIF | -0.232 ± 0.2
116 | FKSYCVGLHDYGP | 0.242 ± 0.99
117 | SYNTIIGSSCN | 0.701 ± 0.69
118 | FYVVRGHGHCWM | 0.68 ± 0.33
119 | IAPSNFRGWMAHYKV | 0.213 ± 0.57
120 | RESSAAVDTCTILKMTEKVG | -0.131 ± 0.66
121 | LSTLQQLGKLLNTVWDDLAQ | 0.048 ± 0.9
122 | IISAFISESTYDCGFASWVS | -0.187 ± 0.42
123 | WPDISCPPCNGDRMTVKWHV | 0.836 ± 0.97
124 | GRLSGYEWGRKSRSPGRWTV | 0.438 ± 1.1
125 | CNIMRSLWLGAIVCMSTMYC | -0.396 ± 0.73
